This note sets out measurements from US9339535.

In this data set the target is PapMV coat protein CPΔN5 (disks) (Papaya mosaic virus) (UniProt P16596). Nature of the data set: EMSA. The settings on record: shift with 500 ng (22 pmol as printed) protein in 10 µl, 165 fmol RNA; cooperative; weak affinity; room temperature 60 min.

Turning to PapMV 5' non-coding 80 nt RNA probe, the binding is 500 ng.
